Reference: patent publication US20180155451A1 (published 2018)
Positions count from the first letter of the chain named. Names and notes keep the numbering of the source. Like-named read-outs stand apart in the source and are kept apart here. One block for each binder: values may come before it.

Key:
[1] = biological target: T1, FcγRIa (human, UniProt P12314 16-292); experiment: SPR (Biacore4000), kinetic analysis
T1 construct: extracellular domain; also called FcgRIa; FcgRI; not shown: His tag attached to the C terminus
T1 sequence (P12314 16-292): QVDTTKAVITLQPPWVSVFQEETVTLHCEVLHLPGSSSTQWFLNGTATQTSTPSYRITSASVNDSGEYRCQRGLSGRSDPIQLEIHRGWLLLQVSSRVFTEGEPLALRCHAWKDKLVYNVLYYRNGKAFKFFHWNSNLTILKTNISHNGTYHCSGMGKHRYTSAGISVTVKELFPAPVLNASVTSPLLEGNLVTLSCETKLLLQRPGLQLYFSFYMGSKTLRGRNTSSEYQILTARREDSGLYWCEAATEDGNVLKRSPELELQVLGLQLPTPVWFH
Method: The variants described above were assessed for their binding to FcγR according to the method described in Reference Example 8.
Analysis of interaction between obj ective antibody and the FcγR was carried out using Biacore T100 (GE Healthcare), Biacore T200, Biacore A100, and Biacore 4000. HBS-EP+ (GE Healthcare) was used as the running buffer, and the measurement temperature was set to 25° C. Chips produced by immobilizing the antigen peptide by the amine coupling method to a Series S sensor Chip CM5 (GE Healthcare), chips produced by allowing preliminarily biotinylated antigen peptides to interact with and immobilize onto a Series S Sensor Chip SA (certified) (GE Healthcare), chips produced by immobilizing Protein L (ACTIGEN, BioVision) to Series S Sencor Chip CM5 (GE Healthcare), or chips produced by immobilizing Protein A/G (Thermo Scientific) to Series S Sencor Chip CM5 (GE Healthcare) were used. Antibodies of interest were captured onto these chips, and allowed to interact to each FcγR diluted with running buffer. To regenerate and repeatedly use the chip, the antibodies captured onto the chip were washed off by reacting 10 mM glycine-HCl, pH 1.5.

[2] = biological target: T2, FcγRIIIa extracellular domain with C-terminal His tag (human, UniProt P08637 17-208); experiment: SPR (Biacore), ratio of KD values for FcγRIIIa
T2 construct: extracellular domain; also called FcgRIIIa; CD16A
T2 sequence (P08637 17-208): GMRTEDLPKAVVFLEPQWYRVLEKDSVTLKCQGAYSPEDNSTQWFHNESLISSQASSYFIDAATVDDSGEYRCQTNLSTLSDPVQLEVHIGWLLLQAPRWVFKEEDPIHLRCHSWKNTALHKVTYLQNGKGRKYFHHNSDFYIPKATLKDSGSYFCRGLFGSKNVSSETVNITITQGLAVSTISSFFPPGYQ
Description: GpH7-A57 (SEQ ID NO: 40) resulting from the introduction of all of S239D, A330L, and I332E into GpH7-A5; GpH7-B78 (SEQ ID NO: 41) resulting from the introduction of all of S239D, A330L, and I332E into GpH7-B3; GpH7-TA7 (SEQ ID NO: 31) resulting from the introduction of all of L234Y, G236W, and S298A into GpH7-A5; and GpH7-TA45 (SEQ ID NO: 32) resulting from the introduction of all of L234Y, G236W, and S298A into GpH7-B3. […] The prepared antibodies were compared for the FcγRIIIa-binding activity using, as an indicator, KD for FcγRIIIa that was determined according to the method described in Reference Example 2.
(§1) Analysis of interaction between objective antibody and the FcγR was carried out using Biacore T100 (GE Healthcare). HBS-EP+ (GE Healthcare) was used as the running buffer, and the measurement temperature was set to 25° C. Chips produced by immobilizing the antigen peptide by the amine coupling method to a Series S Sencor Chip CM5 (GE Healthcare), or alternatively, chips produced by allowing preliminarily biotinylated antigen peptides to interact with and immobilize onto a Series S Sensor Chip SA (certified) (GE Healthcare) were used. Antibodies of interest were captured onto an antigen peptide-immobilized chip, and allowed to interact to each FcγR diluted with running buffer. To regenerate and repeatedly use the chip, the antibodies captured on the chip were washed off by reacting 10 mM glycine-HCl, pH 1.5.

[3] = biological target: T2, FcγRIIIa extracellular domain with …; experiment: SPR (Biacore), ratio of KD values for FcγRIIIa; remark: listed apart in the source
Method: (§2) To assess this hypothesis, GpH7-A53 (SEQ ID NO: 42) resulting from the introduction of S239D into GpH7-A5 was constructed, and, this is combined with GpH7-B78 introduced with S239D, A330L, and I332E, and the expression and preparation were performed according to the method described in Reference Example 1. The effect of the combination of S239D and S239D, A330L, and I332E was assessed by comparing the FcγRIIIa binding between the heterodimerized and homodimerized antibodies with S239D, A330L, and I332E according to the method described in Reference Example 2 (Table 14).
as §1

[4] = biological target: T2, FcγRIIIa extracellular domain with …; experiment: SPR (Biacore), antibody captured, FcγRIIIa as analyte, 1:1 Langmuir kinetic fit
Method: The prepared antibodies were compared for the FcγRIIIa-binding activity using, as an indicator, KD for FcγRIIIa that was determined according to the method described in Reference Example 2.
as §1
(§3) The FcγR-binding activity of each antibody was assessed primarily using as an indicator the FcγR-binding activity and dissociation constant for FcγR.

[5] = biological target: T2, FcγRIIIa extracellular domain with …; experiment: as above; remark: listed apart in the source
Method: as §2, §1, §3

[6] = biological target: T2, FcγRIIIa extracellular domain with …; experiment: SPR (Biacore), ratio of KD values for FcγRIIIa; remark: listed apart in the source
Description: (§4) Then, GpH7-TA54 (SEQ ID NO: 46) resulting from the introduction of Y296W into GpH7-TA22 was constructed, and expressed and prepared in combination with GpH7-B78 according to the method described in Reference Example 1. Furthermore, GpH7-TA58 (SEQ ID NO: 45) resulting from the introduction of Y296W into GpH7-B78 was constructed, and expressed and prepared in combination with GpH7-TA22 according to the method described in Reference Example 1. To assess the effect of combination with Y296W, the prepared antibodies were compared for the FcγRIIIa-binding activity according to the method described in Reference Example 2 (Table 17).
as §1

[7] = biological target: T2, FcγRIIIa extracellular domain with …; experiment: SPR (Biacore), antibody captured, FcγRIIIa as analyte, 1:1 Langmuir kinetic fit; remark: listed apart in the source
Description: as §4, §1, §3

[8] = biological target: T2, FcγRIIIa extracellular domain with …; experiment: SPR (Biacore), ratio of KD values for FcγRIIIa; remark: listed apart in the source
Description: (§5) First, it was considered which H chain should be introduced with Y296W. GpH7-TA52 (SEQ ID NO: 44) resulting from the introduction of the mutation Y296W into GpH7-TA7 was constructed, and expressed and prepared in combination with GpH7-B78 according to the method described in Reference Example 1. Furthermore, GpH7-TA58 (SEQ ID NO: 45) resulting from the introduction of Y296W into GpH7-B78 was constructed, and expressed and prepared in combination with GpH7-TA22 according to the method described in Reference Example 1. To assess the effects of combinations with Y296W, the prepared antibodies were compared for the FcγRIIIa-binding activity according to the method described in Reference Example 2 (Table 16).
as §1

[9] = biological target: T2, FcγRIIIa extracellular domain with …; experiment: SPR (Biacore), antibody captured, FcγRIIIa as analyte, 1:1 Langmuir kinetic fit; remark: listed apart in the source
Description: as §5, §1, §3

B1: H240-Kn120/H240-Hl073/L73-k0 (antibody, human IgG1, kappa)
heavy 1: QDQLVQSGAEVKKPGASVKVSCKASGFNIKDTYIQWVRQAPGQGLEWMGRIDPLRKQTKYREKFEGRVTITADTSTNTAYMELSSLRSEDTAVYYCVRSGREFDYWGQGTLVTVSSASTKGPSVFPLAPSSKSTSGGTAALGCLVKDYFPEPVTVSWNSGALTSGVHTFPAVLQSSGLYSLSSVVTVPSSSLGTQTYICNVNHKPSNTKVDKKVEPKSCDKTHTCPPCPAPEYYWGPMVFLFPPKPKDTLMISRTPEVTCVVVDVSDEDPEVKFNWYVDGVEVHNAKTKPREEQYNATYRVVSVLTVLHQDWLNGKEYKCKVSNKDLPAPIEKTISKAKGQPREPQVCTLPPSRDELTKNQVSLWCLVKGFYPSDIAVEWESNGQPENNYKTTPPVLDSDGSFFLYSKLTVDKSRWQQGNVFSCSVMHEALHNHYTQKSLSLSP
heavy 2: QDQLVQSGAEVKKPGASVKVSCKASGFNIKDTYIQWVRQAPGQGLEWMGRIDPLRKQTKYREKFEGRVTITADTSTNTAYMELSSLRSEDTAVYYCVRSGREFDYWGQGTLVTVSSASTKGPSVFPLAPSSKSTSGGTAALGCLVKDYFPEPVTVSWNSGALTSGVHTFPAVLQSSGLYSLSSVVTVPSSSLGTQTYICNVNHKPSNTKVDKKVEPKSCDKTHTCPPCPAPELLSGPSVFLFPPKPKDTLMISRTPEVTCVVVDVSHEEPEVKFNWYVDGVEVHNAKTKPREEQYNSTYRVVSVLTVLHQDWLNGKEYKCKVSNDALPKPIEETISKAKGQPREPQVYTLPPSRCELTKNQVSLSCAVKGFYPSDIAVEWESNGQPENNYKTTPPVLDSDGSFFLVSKLTVDKSRWQQGNVFSCSVMHEALHNHYTQKSLSLSP
light: DIQMTQSPSSLSASVGDRVTITCRASQDIHKYIAWYQQKPGQAPRLLIQYTSTLQPGVPSRFSGSGSGTDYTFTISSLQPEDIATYYCLQYEQLRTFGGGTKVEIKRTVAAPSVFIFPPSDEQLKSGTASVVCLLNNFYPREAKVQWKVDNALQSGNSQESVTEQDSKDSTYSLSSTLTLSKADYEKHKVYACEVTHQGLSSPVTKSFNRGEC
notes: G236S in H240-Hl068
koff [1]: < 5e-05 s⁻¹

B2: GpH7-A5/GpH7-B78/GpL16-k0 (antibody, human IgG1, kappa)
heavy 1: not shown
heavy 2: QVQLVQSGAEVKKPGASVTVSCKASGYTFTDYEMHWIRQPPGEGLEWIGAIDPKTGDTAYSESFQDRVTLTADKSTSTAYMELSSLTSEDTAVYYCTRFYSYTYWGQGTLVTVSSASTKGPSVFPLAPSSKSTSGGTAALGCLVKDYFPEPVTVSWNSGALTSGVHTFPAVLQSSGLYSLSSVVTVPSSSLGTQTYICNVNHKPSNTKVDKKVEPKSCDKTHTCPPCPAPELLGGPDVFLFPPKPKDTLMISRTPEVTCVVVDVSHEDPEVKFNWYVDGVEVHNAKTKPREEQYNSTYRVVSVLTVLHQDWLNGKEYKCKVSNKALPLPEEKTISKAKGQPREPQVYTLPPSRDELTKNQVSLTCLVKGFYPSDIAVEWESNGQPENNYKTTPPVLDSDGSFFLYSKLTVDKSRWQQGNVFSCSVMHEALHNHYTQESLSLSP
light: DIVMTQSPLSLPVTPGEPASISCQASESLVHSNRNTYLHWYLQKPGQSPQLLIYKVSNRFSGVPDRFSGSGSGTDFTLKISRVEAEDVGVYYCSQNTHVPPTFGQGTKVEIERTVAAPSVFIFPPSDEQLKSGTASVVCLLNNFYPREAKVQWKVDNALQSGNSQESVTEQDSKDSTYSLSSTLTLSKADYEKHKVYACEVTHQGLSSPVTKSFNRGEC
notes: Heterodimerized anti-glypican-3 IgG1 variant
KD ratio 1 (KD of GpH7-G1d/GpL16-k0 divided by KD of the antibody) [2]: 23 fold | KD ratio 2 (KD of GpH7-A5/GpH7-B3/GpL16-k0 divided by KD of the antibody) [2]: 30 fold | KD ratio (KD of GpH7-A5/GpH7-B78/GpL16-k0 divided by KD of the antibody) [3]: 1 fold | Kd [4]: 54 nM | Kd [5]: 54 nM

B6: GpH7-A53/GpH7-B78/GpL16-k0 (antibody, human IgG1, kappa)
heavy 1: B2 heavy 2 with L328A, E330I, D354K, H433R, E437K
heavy 2: B2 heavy 2
light: B2 light
notes: as for B2
KD ratio (KD of GpH7-A5/GpH7-B78/GpL16-k0 divided by KD of the antibody) [3]: 4.9 fold | Kd [5]: 11 nM

B7: GpH7-A57/GpH7-B78/GpL16-k0 (antibody, human IgG1, kappa)
heavy 1: B2 heavy 2 with D354K, H433R, E437K
heavy 2: B2 heavy 2
light: B2 light
notes: the chains differ only in D356K/H435R against K439E
KD ratio 1 (KD of GpH7-G1d/GpL16-k0 divided by KD of the antibody) [2]: 199 fold | KD ratio 2 (KD of GpH7-A5/GpH7-B3/GpL16-k0 divided by KD of the antibody) [2]: 263 fold | KD ratio (KD of GpH7-A5/GpH7-B78/GpL16-k0 divided by KD of the antibody) [3]: 8.7 fold | Kd [4]: 6.2 nM | Kd [5]: 6.2 nM

B8: GpH7-TA7/GpH7-TA58/GpL16-k0 (antibody, human IgG1, kappa)
heavy 1: B2 heavy 2 with L232Y, G234W, D237S, S296A, L328A, E330I, D354K, H433R, E437K
heavy 2: B2 heavy 2 with Y294W
light: B2 light
notes: as for B2
KD ratio (KD of GpH7-TA7/GpH7-B78/GpL16-k0 divided by KD of the antibody) [8]: 1.2 fold | Kd [9]: 3.3 nM

Continued, values first:

KD ratio (KD of GpH7-TA22/GpH7-B78/GpL16-k0 divided by KD of the antibody) [6]: 10 fold | Kd [7]: 1.3 nM
B3: GpH7-TA22/GpH7-TA58/GpL16-k0 (antibody, human IgG1, kappa)
heavy 1: B2 heavy 2 with L232Y, G234W, S296A, L328A, E330I, D354K, H433R, E437K
heavy 2: B2 heavy 2 with Y294W
light: B2 light
notes: as for B2

KD ratio (KD of GpH7-TA22/GpH7-B78/GpL16-k0 divided by KD of the antibody) [6]: 1.3 fold | Kd [7]: 1 nM
B4: GpH7-TA54/GpH7-B78/GpL16-k0 (antibody, human IgG1, kappa)
heavy 1: B2 heavy 2 with L232Y, G234W, Y294W, S296A, L328A, E330I, D354K, H433R, E437K
heavy 2: B2 heavy 2
light: B2 light
notes: as for B2

KD ratio (KD of GpH7-TA7/GpH7-B78/GpL16-k0 divided by KD of the antibody) [8]: 1.8 fold | Kd [9]: 2.3 nM
B5: GpH7-TA52/GpH7-B78/GpL16-k0 (antibody, human IgG1, kappa)
heavy 1: B2 heavy 2 with L232Y, G234W, D237S, Y294W, S296A, L328A, E330I, D354K, H433R, E437K
heavy 2: B2 heavy 2
light: B2 light
notes: as for B2
